Key:
CD47 [1] = molecular target: T1, CD47 (human, UniProt Q08722 19-323); assay: flow cytometry on CD47-low human Ramos cells
T1 construct: whole, on cells; Human by the cells used (blood of human donors; human Ramos, A549, BT474, Raji, Namalwa cells); also called human CD47
Procedure: (§1) After washing again, cells were fixed with 1% formaldehyde in PBS. Cells were analyzed by flow cytometry (MACSQuant, Miltenyi Biotec, Cologne, Germany).

CD47 [2] = molecular target: T1, CD47; assay: flow cytometry on CD47-high (CD47-transfected) CHO cells
Procedure: as §1

CD47 [3] = molecular target: T1, CD47; assay: flow cytometry on CD47-transfected CHO cells
HER2 = molecular target: T2, HER2 (human, UniProt P04626 23-1255); assay: flow cytometry on BT474 cells
T2 construct: whole, on cells; The cells carry CD47 as well
Procedure: After washing with PBS+1% FBS, cells were incubated with FITC F(ab′)2 goat Anti-Human IgG, Fcγ (Jackson ImmunoResearch, West Grove, Pa.), diluted 1:200 in PBS+1% FBS for 60 min on ice. After washing again, cells were fixed with 1% formaldehyde in PBS. Cells were analyzed by flow cytometry (MACSQuant, Miltenyi Biotec, Cologne, Germany).

B1: chimeric antibody B6H12/huIgG1 (antibody, V domains shown)
VH: EVQLQESGGDLVKPGGSLKLSCAASGFTFSGYGMSWVRQTPDKRLEWVATITSGGTYTYYPDSVKGRFTISRDNAKNTLYLQIDSLKSEDTAIYFCARSLAGNAMDYWGQGTTVTVSS
VL: DIVITQSPATLSVTPGDRVSLSCRASQTISDYLHWYQQKSHESPRLLIKFASQSISGIPSRFSGSGSGSDFTLSINSVEPEDVGVYYCQNGHGFPRTFGGGTKLEIKR
notes: also called anti-CD47; anti-CD47 huIgG1
In the case of B1, the EC50 (CD47 [1]) is reported as 6 nM and the EC50 (CD47 [2]) is reported as 7 nM.

B2: Fcab(HER2) (other)
chain: EPKSSDKTHTCPPCPAPELLGGPSVFLFPPKPKDTLMISRTPEVTCVVVDVSHEDPEVKFNWYVDGVEVHNAKTKPREEQYNSTYRVVSVLTVLHQDWLNGKEYKCKVSNKALPAPIEKTISKAKGQPREPQVYTLPPSRDEYLYGDVSLTCLVKGFYPSDIAVEWESNGQPENNYKTTPPVLDSDGSFFLYSKLTVPRHSARMWRWAHGNVFSCSVMHEALHNHYTQKSLSLSPGK
notes: also called anti-HER2 Fcab H10-03-6
B2: no binding (CD47 [3]); binds (HER2).

B3: anti-CD20 huIgG1 (antibody, V domains shown)
VH: QVQLQQPGAELVKPGASVKMSCKASGYTFTSYNMHWVKQTPGRGLEWIGAIYPGNGDTSYNQKFKGKATLTADKSSSTAYMQLSSLTSEDSAVYYCARSTYYGGDWYFNVWGAGTTVTVSA
VL: QIVLSQSPAILSASPGEKVTMTCRASSSVSYIHWFQQKPGSSPKPWIYATSNLASGVPVRFSGSGSGTSYSLTISRVEAEDAATYYCQQWTSNPPTFGGGTKLEIKR
notes: Control in standard monoclonal antibody format, huIgG1, based on 2B8 (rituximab); not shown: rest of the human IgG1 heavy chain
B3: no binding (CD47 [3]).

From patent US20160177276A1 (Merck KGaA, published 2016)
